# Experiment: yeast display, Sf9 membrane polyspecificity reagent, FACS + sequencing; frameworks hold sequencing errors
# How it was run: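 Sorting gates, low and high (top ~1%), were placed on anti-HA fluorescence to track expression and on streptavidin fluorescence to track reagent binding. A clone's polyreactivity label is taken from the gate it came out of. The reagent was 10% biotinylated, detergent-solubilized Sf9 membrane, applied for 1 hour at 4 °C to galactose-induced yeast display cells.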
row,Sequence,polyreactivity (PSR sort gate)
1,QVQLVESGGGLVQAGGSLRLSCAASGSIFRGYVMGWYRQAPGKERELVAAIRWRGGDTRYADSVKGRFTISRDNAKNTVYLQMNSLKPEDTAVYYCAAQYRKTQYQKKYDYWGQGTQVTVSS,high polyreactivity
2,QVQLVESGGGLVQAGGSLRLSCAASGSIFRKNAMGWYRQAPGKERELVAAITCTGRTTYADSVKGRFTISRDNAKNTVYLQMNSLKPEDTAVYYCAADVNYYQHRLYYWGQGTQVTVSS,low polyreactivity
3,QVQLVESGGGLVQAGGSLRLSCAASGSIFRKNAMGWYRQAPGKERELVAAITYRTGSTYYADSVKGRFTISRDNAKNTVYLQMNSLKPEDTAVYYCAAQTWGSGYGHIGRRRHDYWGQGTQVTVSS,high polyreactivity
4,QVQLVESGGGLVQAGGSLRLSCAASGSIFRKYAMGWYRQAPGKEREFVAAISRSGGGTYYADSVKGRFTISRDNAKNTVYLQMNSLKPEDTAVYYCAAEFRTGLQGEHYYWGQGTQVTVSS,low polyreactivity
5,QVQLVESGGGLVQAGGSLRLSCAASGSIFRLNALGWYRQAPGKERELVAAITWSDSSTYYADSVKGRFTISRDNAKNTVYLQMNSLKQEDTAVYYCAADPQSYKYDYWGQGTQVTVSS,low polyreactivity
6,QVQLVESGGGLVQAGGSLRLSCAASGSIFRLNAMGWYRQAPGKERELVAAIDGSDGSTYYADSVKGRFTISRDNAKNTVYLQMNSLKPEDTAVYYCAAERGYPTDYYSGSDDYWGQGTQVTVSS,low polyreactivity
7,QVQLVESGGGLVQAGGSLRLSCAASGSIFRLNAMGWYRQAPGKERELVAAITSSGGNTYYADSVKGRFTISRDNAKNTVYLQMNSLKPEDTAVYYCATRAYARWYGYWGQGTQVTVSS,low polyreactivity
8,QVQLVESGGGLVQAGGSLRLSCAASGSIFRNNAMGWYIQAPGKERELVASITRRGGSTYYADSVKGRFTISRDNAKNTVYLQMNSLKPEYTAGSYCAATTQHRYTLNYWGQGTQVTVSS,high polyreactivity
9,QVQLVESGGGLVQAGGSLRLSCAASGSIFRNYAMGWYRQAPGKEREFVAAISGGGGSTYYADSVKGRFTISRDNAKNTVYLQMNSLKPEDTAVYYCARVRYYGALKLYAYDHWGQGTQVTVSS,high polyreactivity
10,QVQLVESGGGLVQAGGSLRLSCAASGSIFRPNDMGWYRQAPGKERELVAAISTGGSTSYADSVKGRFTISRDNAKNTVYLQMNSLKPEDTAVYYCAAVYYLTDWYGVWYSFDYWGQGTQVTVSS,low polyreactivity
11,QVQLVESGGGLVQAGGSLRLSCAASGSIFRPYAMGRYRQAPGKERELVAAISWRSGRTYYADSVKGRFTISRDNAKNTVYLQMNSLKPEDTAVYYCAADLASYAYRYDYWGQGTQVTVSS,high polyreactivity
12,QVQLVESGGGLVQAGGSLRLSCAASGSIFRPYAMGWYRQAPGKERELVAAITWSGGRTYYADSVKGRFTISRDNAKNTVYLQMNSLKPEDTAVYYCAADDSEGFDYWGQGTQVTVSS,high polyreactivity
13,QVQLVESGGGLVQAGGSLRLSCAASGSIFRQYAMGWYRQAPGKERELVAAITYSGGNTYYADSVKGRFTISRDNAKNTVYVQMNSLKPEDTAVYYCAADYGSRSWEYNYWGQGTQVTVSS,low polyreactivity
14,QVQLVESGGGLVQAGGSLRLSCAASGSIFRRNAMGWYRQAPGKERELVAAISSNGGSTYYADSVKGRFTISRDNAKNTVYLQMNSLKQEDTAVYYFNALGRVRYSPRYGYDYWGLGTQVTVSS,high polyreactivity
15,QVQLVESGGGLVQAGGSLRLSCAASGSIFRRNAMGWYRQAPGKERELVAAISSSGNTYYADSVKGRFTISRDNAKNTVYLQMNSLKPEDTAVYYCAADGRNYYGSYDYWGQGTQVTVSS,low polyreactivity
16,QVQLVESGGGLVQAGGSLRLSCAASGSIFRRNAMGWYRQVPGKERELVAAITWRGDRTYYADSVKGRFTISRDNAKNTVYLQMNSLKPEDTAVYYCNKLGRIQYDYWGQGTQVTVSS,high polyreactivity
17,QVQLVESGGGLVQAGGSLRLSCAASGSIFRRNTMGWYRQAPGKERELVAAITFTGGRTYYADSVKGRFTISRDNAKNTVYLQMNSLKPEDTAVYYCNRVTAYYPTKFDYWGQGTQVTVSS,high polyreactivity
18,QVQLVESGGGLVQAGGSLRLSCAASGSIFRRYAMGWYRQAPGKERELVAAIDSSGGTSYADSVKGRFTISRDNAKNTVYLQMNILKPEDTAVYYCATSFSWKGRKYGYWGQGTQVTVSS,high polyreactivity
19,QVQLVESGGGLVQAGGSLRLSCAASGSIFRSYAMGWYRHAPGKERELVASISRRGGSTYYADSVKGRFTSSRDNSKNTVYLHMNSRKPEDTAVYYCAAVRYNSRVSTTTSEMYYWGQGTQVTVSS,low polyreactivity
20,QVQLVESGGGLVQAGGSLRLSCAASGSIFRSYAMGWYRQAPGKERELVAAISRRGSSTYYADSVKGRFTISRDNAKNTVYLQMNSLKPEDTAVYYCAADRVVPRGRYGGDYWGQGTQVTVSS,high polyreactivity
21,QVQLVESGGGLVQAGGSLRLSCAASGSIFRSYAMGWYRQAPGKERELVAAITNGGSTYYADSVKGRFTISRDNAKNTVYLQINSLKPEDTAVYYCAAARYTYWFYLVKKTGYYWGQGTQVTVSS,high polyreactivity
22,QVQLVESGGGLVQAGGSLRLSCAASGSIFRSYAMGWYRQAPGKERELVAGISYSGGSTYYADSVKGRFTISRDKAKNTVYLQMNSLKPEDTAVYYCNVDGGTYFFFVGAWGEYDYWGQGTQVTVSS,low polyreactivity
23,QVQLVESGGGLVQAGGSLRLSCAASGSIFRSYGMGWYRQAPGKDRELVPSISRRGGSTYYADSVKGRFTISRDNAKNTVYLQTNSLKPEDTAVYYCAAVRYNSRVSTTPSEMYYWGQGTQVTVSS,low polyreactivity
24,QVQLVESGGGLVQAGGSLRLSCAASGSIFRTNAIGWYRQAPGRERELVAAITGSGGSTYYADSVKGRFTISRDNAKNTVYLQMNSLKPEDTAVYYCAVVGYHRDFDYWGQGTQVTVSS,low polyreactivity
25,QVQLVESGGGLVQAGGSLRLSCAASGSIFRTNAMGWYRQAPGKERELVAAISSGDRTYYADSVKGRFTISRDNAKNTVYLQMNSLKPEDTAVYYCAARGYSATVYAGTYDYWGQGTQVTVSS,low polyreactivity
26,QVQLVESGGGLVQAGGSLRLSCAASGSIFRTNAMGWYRQAPGKERELVAAITGRGGSTYYADSVKGRFTISRNNAKNTVYLQMNSLKPEDTAVYYCAADTWYGYRYKYDYWGQGTQVTVSS,high polyreactivity
27,QVQLVESGGGLVQAGGSLRLSCAASGSIFRTYAMGWYRQAPGKERELVAAIRRSGGRTYYADSVKGRFTISRDNAKNTVYLQMNSLKPEDTAVYYCNKRVSKQSKYDYWGQGTQVTVSS,high polyreactivity
28,QVQLVESGGGLVQAGGSLRLSCAASGSIFRTYTMGWYRQAPGKEREFVAAISRSGGSTYYADSVKGRFTISRDNAKNTVYLQMNSLKPEDTAVYYCNARWGLGSYGYWGQGTQVTVSS,high polyreactivity
29,QVQLVESGGGLVQAGGSLRLSCAASGSIFRVNDMGWYRQAPGKERELVAAISSNGDDTFYADSVKGRFTISRDNAKNTVYLQMNSLKPEDTAVYYCNAESPTYPDYYFKYTHYDYWGQGTQVTVSS,low polyreactivity
30,QVQLVESGGGLVQAGGSLRLSCAASGSIFRVNDMGWYRQAPGKERELVAAISSNGDDTFYADSVKGRFTISRDNSKNTVYLQMNSLKPEDTAVYYCNAESPTYPDYFFKYTHYDYWGQGTQVTVSS,low polyreactivity
